The assay concerns the target p193myc (p193 protein harboring a C-terminal myc epitope tag, from CMV-p193myc) (mouse) (UniProt Q8VE73). Briefly: cell-based or functional assay.

“SV40 Large T Antigen (T-Ag) (from UniProt P03070 1-708)” yielded a co-localization to the cytoplasm in co-transfected NIH-3T3 cells (immune cytologic analyses) of 63%.

(Values after patent US20030073236A1, “p193 proteins and nucleic acids, and uses thereof” (priority 1999, published 2003).)
